Results published in patent WO2024101382A1 (dated 2024).

Molecular target: T1, Recombinant mouse LSR-Fc (mouse, UniProt Q99KG5 36-206, limits assumed)
T1 construct: not shown: Fc part
T1 sequence (looked up): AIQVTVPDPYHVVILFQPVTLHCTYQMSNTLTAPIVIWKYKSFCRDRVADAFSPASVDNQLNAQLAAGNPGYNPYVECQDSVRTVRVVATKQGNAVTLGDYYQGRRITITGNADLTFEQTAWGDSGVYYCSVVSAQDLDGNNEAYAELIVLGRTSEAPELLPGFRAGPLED
Assay: ELISA, LSR-Fc coated on plate

- binding result: binds
B1: Chicken mouse chimeric anti-LSR antibody (#27-6mF18) (antibody, V domains shown)
VH: AVTLDESGGGLQMPGGALSLVCRASGFDFSSYEMQWIRQAPGKGLEWVAGISGAGSGTRYGSAVKGRATISRDNGQSTVRLQLNNLRAEDTGIYFCARSSNIDAWGHGTEVTVST
VL: ALTQPASVSANLGGTVKITCSGGGRYAESYYYGWYQQKSPGSTPVTVIYWNDKRPSNIPSRFSGSLSGSTNTLTITGVQVEDEAVYFCGSYEDSRSAFGAGTTLTV
notes: Chicken-mouse chimeric antibody; also called anti-LSR monoclonal antibody #27-6 mF-18
